Test results reported in patent publication US20080311122A1, “Antagonists of Hmgb1 and/or Rage and Methods of Use Thereof” (Medimmune, LLC, priority 2005, published 2008).
Entries after “also recorded” stand apart in the source; their conditions may differ.

T1: HMG2 (Bos taurus, UniProt P40673)
T1 construct: from tissue; host or cells: calf thymus (as read from the sentence)
T1 sequence (P40673 1-209): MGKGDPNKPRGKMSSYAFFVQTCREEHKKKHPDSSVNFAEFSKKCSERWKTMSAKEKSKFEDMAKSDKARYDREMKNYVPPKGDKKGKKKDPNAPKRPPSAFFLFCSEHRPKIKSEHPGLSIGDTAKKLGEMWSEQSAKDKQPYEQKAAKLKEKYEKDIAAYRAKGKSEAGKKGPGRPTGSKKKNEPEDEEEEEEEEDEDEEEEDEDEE

T2: recombinant HMG1 binding to RAGE-Fc (Homo sapiens, UniProt P09429)
T2 construct: made in house; host or cells: E. coli (HMG1)
T2 sequence (P09429 1-215): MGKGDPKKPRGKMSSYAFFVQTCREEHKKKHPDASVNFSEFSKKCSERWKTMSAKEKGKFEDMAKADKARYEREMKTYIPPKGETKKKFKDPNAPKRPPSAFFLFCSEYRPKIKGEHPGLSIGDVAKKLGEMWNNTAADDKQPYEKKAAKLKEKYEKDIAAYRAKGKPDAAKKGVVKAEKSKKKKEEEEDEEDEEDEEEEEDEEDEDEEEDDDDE


Columns and labels:
[1] = Differential scanning calorimetry; format: physicochemical; design: unit: °C; conditions: in °C (unit assumed)
Protocol: Differential Scanning Calorimetry: Thermal melting temperatures (Tm) were measured with a VP-DSC (MicroCal, LLC) using a scan rate of 1.0° C./min and a temperature range of 25-120° C. A filter period of 8 seconds was used along with a 5 minute pre-scan thermostating. Samples were prepared by dialysis into 25 mM Histidine-HCl, pH 6 using Pierce dialysis cups (3.5 kD). Average Mab concentrations were 50 μg/mL as determined by A280. Melting temperatures were determined following manufacturer procedures using Origin software supplied with the system. Briefly, multiple baselines were run with buffer in both the sample and reference cell to establish thermal equilibrium. After the baseline was subtracted from the sample thermogram, the data were concentration normalized and fitted using the deconvolution function.

HMG2 = target: T1, HMG2; assay: Binding to HMG1 vs. HMG2 ELISA; design: species or system calf; conditions: immobilized antigen
Protocol: Binding to HMG1 vs. HMG2: Ultra high-binding ELISA plates (ThermoLab systems, #3855) were coated with either 5 ug/mL of Calf thymus HMGB1 or HMBG2 diluted in 10 mM Phosphate buffered saline (PBS), pH 7.2 and incubate overnight at 4 degrees. The plates were washed twice with Ca and Mg free PBS and 100 microliters of anti-HMGB1 antibody diluted in 10 mM PBS, pH 7.2+1% bovine serum albumin (BSA) to a final concentration of 10 ug/mL was added to each well and the plates were incubated 1 hour at room temperature. The wells were washed three times with 100 μl of PBS, pH 7.2. HRP labeled goat-anti-human IgG Kappa-chain (KPL, #14-10-10) and goat-anti-human IgG Lambda-chain (KPL, #14-10-11) were diluted in 10 mM PBS+1% BSA 1:1000 and 100 μl were added to each well and incubated for 1 hour at room temperature. The wells were then washed three times with 100 μl of PBS, pH 7.2. OPD substrate (Pierce chemical company, #34006) was prepared following the manufacturers instructions and 100 μl of prepared substrate was added to each well and the plates incubated at room temperature in the dark for 20-30 minutes. The reaction was stopped with the addition of 100 μl of 2M H2SO4, and the plates read on a plate reader at a wavelength of 490 nm.

[2] = Isoelectric focusing gel electrophoresis; format: physicochemical
Protocol: Isoelectric Focusing Gel Electrophoresis: Isoelectric points were determined using a Pharmacia Biotech Multiphor 2 electrophoresis system with a multi temp 3 refrigerated bath recirculation unit and an EPS 3501 XL power supply. Pre-cast ampholine gels (Amersham Biosciences, pI range 2.5-10) were loaded with 5 μg of protein. Broad range pI marker standards (Amersham, pI range 3-10, 8 μL) were used to determine relative pI for the Mabs. Electrophoresis was performed at 1500 V, 50 mA for 105 minutes. The gel was fixed using a Sigma fixing solution (5×) diluted with purified water to 1×. Staining was performed overnight at room temperature using Simply Blue stain (Invitrogen). Destaining was carried out with a solution that consisted of 25% ethanol, 8% acetic acid and 67% purified water. Isoelectric points were determined using a Bio-Rad Densitometer relative to calibration curves of the standards.

[3] = test system: HMG1 (recombinant, native; immobilized, soluble); assay: Direct and sandwich (capture) ELISA comparing forms of HMG1; format: binding; conditions: two ELISA formats, rHMG1
Protocol: Direct ELISA (immobilized HMG1): Individual wells of a 96-well immunoplate (EIA/RIA plate, High binding, Costar) were coated with HMGB-1 at 5 μg/ml in PBS at 4° C. overnight. The plate was then blocked with 4% milk powder dissolved in PBS at 37° C. for 1 hour. The blocking solution was removed and replaced with human anti-HMG1 antibodies at various concentrations (see FIG. 4A). The plate was then washed (ELX-405 Plate washer, BIO-TEK) and secondary antibody (anti-human IgG-HRP, PIERCE) was added at a final concentration of 1:125,000 at 37° C. for 1 hour. HRP activity was detected with Sureblue HRP substrate (KPL). Plates were read at 450 nm using a Kinetic Microplate Reader (Molecular Devices).
Sandwich ELISA (soluble HMG1): Immunoplates (EIA/RIA plate, High binding, Costar) were coated with anti human IgG Fc at 10 μg/ml in PBS (pH 7.2) and incubated at 4° C. overnight. The coating reagent was removed and the plates were rinsed briefly with PBS. The plates were then blocked with 4% milk for 1 hour at 37° C. and rinsed with PBS. The anti-HMG1 antibodies were diluted in 4% milk. For serial dilutions, the antibodies were used at a starting concentration of 20 μg/ml. The diluted anti-HMG1 antibodies were then added into plate and incubated for 1 hr at 37° C. The plate was then washed 10 times with PBST (PBS/0.1% tween 20) and incubate with antigen (HMGB1, 2 μg/ml; or 0.7 μg/ml for native HMGB1) in 4% milk and incubated at 37° C. for 1 h. The plate was then wash 10 times and incubated with mouse anti-HMGB1, 1 μg/ml in 4% milk at 37° C. for 1 h. The plate was washed 10 times and incubated with anti-mouse IgG-HRP at 1:1000 at 37° C. for 1 h. The plate was then washed and developed. HRP activity was detected with Sureblue HRP substrate (KPL). Plates were read at 450 nm using a Kinetic Microplate Reader (Molecular Devices).

[4] = target: T2, recombinant HMG1 binding to RAGE-Fc; assay: HMG1 binding to RAGE-Ig by ELISA; conditions: at the concentrations tested
Protocol: HMG1 binding to RAGE-Ig by ELISA: 50 μl/well of RAGE-Fc fusion protein at 5 μg/ml in PBS was added to each well of an ELISA plate and incubated overnight at 4° C. The plate was then blocked with 200 μl of 5% milk at 37° C. for 1 hr and washed 3× with PBS/Tween. 50 μl/well of diluted HMGB1 solution. For dose curves, HMGB1 concentrations started at 4 ug/ml in PBS. For antibody blocking the HMGB1 was preincubated in another plate with human anti-HMG1 antibodies or buffer, then transferred to the RAGE-coated plate. The plates were then incubated at room temperature for 2 hours and washed 3×. To detect any HMG1 bound to the immobilized RAGE-Fc a mixture of biotinylated mouse anti-HMG1 mAbs (10D4, 4H11, 3E10 and 5C12) each at 1 ug/ml, total Ab: 4 ug/ml, were added to each well and the plate was incubated for 1 hour at room temperature. The plate was then washed and Strepavidin-HPR was added to each well and incubated 15 min. The plate was then washed 3× and blotted dry. 100 μl of TMB developing agent was added and the plate read at 650 nm. Values were calculated as percent of inhibition with HMG1 alone equal to 0% inhibition. The data in FIG. 9 and summarized in Table 1 represent the average of two separate experiments.

| relative binding to HMG1 and HMG2 (HMG2) | Molecule | Tm [1] | PI [2] | binding to immobilized versus soluble HMG1 [3] | block of recombinant HMG1 binding to RAGE [4] |
| --- | --- | --- | --- | --- | --- |
| specific for HMG1 | G35: human anti-HMG1 antibody; VL/VH aa SEQ ID NO: 54/56 (antibody, listed as Homo sapiens, V domains shown) VH: EVQLLESGGGLVQPGGSLRLSCAASGFTFSWYKMVWVRQAPGKGLEWVSSIVPSGGITIYADSVKGRFTISRDNSKNTLYLQMNSLRAEDTAVYYCARVQQWLGRPYFDYWGQGTLVTVSS VL: AQDIQMTQSPLSLPVTPGEPASISCRSSQSLLHGNGYNYLDWYLQRPGQSPQLLIYSGSNRASGVPDRFSGSGSGTDFTLKISRVEAEDVGVYYCMQSLQSRTFGQGTKVEIK | 69 | 8.61 |  |  |
| specific for HMG1 | G34: human anti-HMG1 antibody; VL/VH aa SEQ ID NO: 50/52 (antibody, listed as Homo sapiens, V domains shown) VH: EVQLLESGGGLVQPGGSLRLSCAASGFTFSHYMMGWVRQAPGKGLEWVSRISPSGGGTVYADSVKGRFTISRDNSKNTLYLQMNSLRAEDTAVYYCARGGNWNYISYYYYYLDVWGKGTTVTVSS VL: AQDIQMTQSPSSLSASVGDRVAITCRASQSIDTYLNWYQQKPGKAPKLLIYAASKLEDGVPSRFSGSGTGTDFTLTIRSLQPEDFASYFCQQSYSSPGITFGPGTKVEIK | ~75 | ~8.7 | bind better to soluble rHMG1 | do not at the concentrations tested |

The next lines start with the molecule.

| Molecule | relative binding to HMG1 and HMG2 (HMG2) | Tm [1] | PI [2] | binding to immobilized versus soluble HMG1 [3] | block of recombinant HMG1 binding to RAGE [4] |
| --- | --- | --- | --- | --- | --- |
| S14: human anti-HMG1 antibody; VL/VH aa SEQ ID NO: 66/68 (antibody, listed as Homo sapiens, V domains shown) VH: EVQLLESGGGLVQPGGSLRLSCAASGFTFSWYETGWVRQAPGKGLEWVSGISPSGGYTQYADSVKGRFTISRDNSKNTLYLQMNSLRAEDTAVYYCARSGVGATKIFDYWGQGTLVTVSS VL: AQDIQMTQSPSSLSASVGDRVTIICRANERINTYLNWYQQKPGKAPKLLISGTSSLESGVPSRFSGSGSGTEFTLSISSLQPEDFASYYCQQSYSSPYTFGQGTNLEIR | specific for HMG1 | 70.7 | 8.62 |  | did not inhibit RAGE binding; also recorded: do not at the concentrations tested |
| G12: human anti-HMG1 antibody; VL/VH aa SEQ ID NO: 38/40 (antibody, listed as Homo sapiens, V domains shown) VH: EVQLLESGGGLVQPGGSLRLSCAASGFTFSYYMMTWVRQAPGKGLEWVSSISPSGGYTIYADSAKGRFTISRDNSKNTLYLQMNSLRAEDTAVYYCARALSTGSFWDYWGQGTLVTVSS VL: AQDIQMTQSPGTLSLSPGERATLSCRASESLTSTYVAWYQHKPGQAPRLLIHGGSTRATGIPVRFSGSGSGTDFTLTIATLEPEDFAVYYCQQYGSSPYTFGQGTKLEIK | specific for HMG1 | 78.8 | 8.6 | little difference in binding to immobilized or soluble HMG1 | did not inhibit RAGE binding; also recorded: do not at the concentrations tested |
| G16: human anti-HMG1 antibody; VL/VH aa SEQ ID NO: 42/44 (antibody, listed as Homo sapiens, V domains shown) VH: EVQLLESGGGLVQPGGSLRLSCAASGFTFSWYKMTWVRQAPGKGLEWVSSISPSGGFTSYADSVKGRFTISRDNSKNTLYLQMNSLRAEDTAVYYCARDLDIRHAFDIWGQGTMVTVSS VL: AQDIQMTQSPGTLSLSPGESGTLSCRASESVSSRHFAWYQQKPGQAPRLLIYGASSRPTGIPDRFSGSGSGTDFTLTLSRLEPEDFAVYFCQYYGSSPYTFGGGTKVEMK |  |  |  | bound slightly better to immobilized rHMG1 | did not inhibit RAGE binding; also recorded: do not at the concentrations tested |
